Columns and labels:
[1] = target: T1, soluble HEK (sHEK), complete extracellular domain (exodomain) of HEK encoded by exons I-VII (human, UniProt P29320 21-541); test: BIAcore, LERK-FLAG over immobilised HEK; reference LERK 3-FLAG
T1 construct: extracellular domain; Untagged soluble exodomain from CHO cells; also called HEK exodomain
T1 sequence (looked up): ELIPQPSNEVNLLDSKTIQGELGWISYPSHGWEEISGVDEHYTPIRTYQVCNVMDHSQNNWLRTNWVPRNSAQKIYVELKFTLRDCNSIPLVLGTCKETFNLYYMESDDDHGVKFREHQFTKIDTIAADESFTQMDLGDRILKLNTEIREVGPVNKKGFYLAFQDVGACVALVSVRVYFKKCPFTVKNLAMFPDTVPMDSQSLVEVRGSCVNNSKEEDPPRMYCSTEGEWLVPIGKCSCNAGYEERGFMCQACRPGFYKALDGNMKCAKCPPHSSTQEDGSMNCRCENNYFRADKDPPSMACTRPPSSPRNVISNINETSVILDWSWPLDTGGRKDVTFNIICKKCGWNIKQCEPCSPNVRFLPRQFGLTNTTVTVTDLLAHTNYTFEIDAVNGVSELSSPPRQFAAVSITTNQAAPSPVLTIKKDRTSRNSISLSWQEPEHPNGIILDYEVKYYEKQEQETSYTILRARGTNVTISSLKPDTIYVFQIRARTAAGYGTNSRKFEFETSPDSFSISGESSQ

[2] = target: T1, soluble HEK (sHEK), complete …; test: BIAcore, LERK 7-FLAG over immobilised sHEK, single component model
Method: (§1) The binding of various HEK constructs and derived peptides was analysed on the BIAcore optical biosensor (Pharmacia Biosensor, Sweden) using purified soluble HEK (corresponding to the entire extracellular domain) or LERK 7-FLAG derivatised CM 5 sensor chips and the interaction kinetics determined. The immobilization of HEK onto the sensor chip surface was performed essentially as described by Lackmann et al, 1996. LERK7-FLAG (47 μg/ml in 20 mM sodium acetate, pH 4.5) was coupled at 5 μl/min onto N-hydroxysuccinimide (NHS, 0.05 M)/N-hydroxysuccinimide-N-ethyl-N'-([…]) carbodiimide(EDC, 0.2 M) activated sensor chips (45 μl, 2 μl/min) to yield an increase in the response level of 2500–3000 response units (RU).
(§2) Figures 5A, 5B: FIG. 5: Binding curves for the interaction of monovalent LERK-FLAG fusion proteins with immobilised sHEK. Homogeneous preparations of CHO cell-derived LERK 3-FLAG (panel A) or LERK 7-FLAG (panel B) at increasing concentrations (8.22, 16.44, 32.88, 65.75, 131.5, 263, 526 nM) of LERK3-FLAG, and (1.25, 2.5, 5, 10, 20, 40, 80 nM) LERK7-FLAG were injected across an sHEK-derivatised sensor surface. BIAcore data for the association and dissociation phases were used to estimate corresponding kinetic rate constants on the basis of a one-to-one interaction model. (panel C). […]

[3] = target: T1, soluble HEK (sHEK), complete …; test: BIAcore, apparent KD from kinetic rate constants, immobilised sHEK
Method: as §1, §2

[4] = target: T1, soluble HEK (sHEK), complete …; test: BIAcore, monovalent ligand constructs on HEK; reference LERK 3-FLAG
[5] = target: T2, HEK I-VII (N-terminally FLAG-tagged HEK exodomain, exons I-VII) (human, UniProt P29320 21-541); test: BIAcore, apparent KD from kinetic constants, HEK I-VII over sensor chip-immobilised LERK 7
T2 construct: extracellular domain; CHO cell product; in the zebrafish experiments expressed from injected mRNA; also called HEK-FLAG
T2 sequence (looked up): T1 sequence (looked up)
Method: as §1
(§3) Figure 2D: FIG. 2D: sHEK proteins at increasing concentrations (15.6–500 nM) were injected onto LERK 7-derivatised sensor chips and the association rate constants, (M) derived from BIAcore raw data using the BIA evaluation software as described in *Materials and Methods*. Figure 2E: FIG. 2E; The kinetic rate constants were then used to estimate apparent dissociation constants according to K_D=kd/ka. The mean and standard deviation from estimates at five different concentrations are shown (dark shading). In addition, equilibrium responses were used to estimate the apparent equilibrium dissociation constants (light shading).

[6] = target: T1, soluble HEK (sHEK), complete …; test: BIAcore, apparent KD from kinetic constants, sHEK over sensor chip-immobilised LERK 7; sHEK over sensor chip-immobilised LERK 7
Method: as §1, §3

fold lower off rate than LERK3-FLAG [1]: 40 fold
koff [2]: 0.0061 s⁻¹
kon [2]: 480000 M⁻¹ s⁻¹
Kd [3]: 12 nM
fold more avid than LERK3 [4]: 50 fold
Kd [5]: 62 nM
Kd [6]: 72 nM
B1: LERK 7-FLAG (monovalent LERK7/AL-1 with N-terminal FLAG peptide) (ligand, human, UniProt P52803 21-203, looked up, not shown: small tags and cut ends)
chain: QDPGSKAVADRYAVYWNSSNPRFQRGDYHIDVCINDYLDVFCPHYEDSVPEDKTERYVLYMVNFDGYSACDHTSKGFKRWECNRPHSPNGPLKFSEKFQLFTPFSLGFEFRPGREYFYISSAIPDNGRRSCLKLKVFVRPTNSCMKTIGVHDRVFDVNDKVENSLEPADDTVHESAEPSRGEN
notes: domain: mature protein stopped before the hydrophobic tail; also called soluble LERK7
